Paper PMC7688234, “Salt Stress Response of Sulfolobus acidocaldarius Involves Complex Trehalose Metabolism Utilizing a Novel Trehalose-6-Phosphate Synthase (TPS)/Trehalose-6-Phosphate Phosphatase (TPP) Pathway” (Applied and Environmental Microbiology, 2020)

How the values were obtained:
[1] = substrate: Nc1ncnc2c1ncn2[C@@H]1O[C@H](COP(=O)(O)OP(=O)(O)O[C@H]2O[C@H](CO)[C@@H](O)[C@H](O)[C@H]2O)[C@@H](O)[C@H]1O; assay: purified protein; assay type: biochemical, Sulfolobus acidocaldarius; conditions: glycosyl donor, G6P as acceptor (standard 10 mM), 10 mM MgCl2, 50 mM HEPES-KOH pH 7, 55°C
[2] = substrate: O=c1ccn([C@@H]2O[C@H](CO[P@@](=O)(O)O[P@@](=O)(O)O[C@H]3O[C@H](CO)[C@@H](O)[C@H](O)[C@H]3O)[C@@H](O)[C@H]2O)c(=O)[nH]1; assay: purified protein; assay type: biochemical, Sulfolobus acidocaldarius; conditions: glycosyl donor, G6P as acceptor (standard 10 mM), 10 mM MgCl2, 50 mM HEPES-KOH pH 7, 55°C
[3] = molecular target: the molecule itself; assay: SEC; gel filtration under native conditions against SDS-PAGE under denaturing conditions; Superdex 200 HiLoad 26/60, 30 mM Tris-300 mM NaCl, pH 7

B1: trehalose-6-phosphate synthase (TPS, Saci_1249) of Sulfolobus acidocaldarius (enzyme, UniProt Q4J9D6 1-444, looked up)
chain: MFSVSISTQTPPVRFRYTYRDLMDKYGFFELPIELSQLDSSDYYFSVGGVPKMMLSLINKFNKVRWVSLGPGYPPQVKYGDQRLFDFIDLDPENLKNYTRYKEGIYNESHGIEKYEIKPSEYISYADYNWISAKKLLEFHNDSDVYFINDFQLLLVGGIIGPSAPAILWYHIPFVPENLSPRIRDFIVRSFEGYDYVILSTKRDLEGLLRIGAKINARQVYPFIDTSTLRRGSKGEVDKVKSKYNIGKDEKVITVVARMDPMKSQDVAIMALKKIKESNAKLLLVGNGSFTSGALGTNKAGNWVRKLQSLASNLGVDKKVVFTGHVSDEELNAIYEASDVIVLPSRIEGFGLVVCEGWFFEKPAIVSSGAGVSELVIDGSNGFVFKSGNYEELAEKIDIVLKEPDKYSRLSRDTVNKCNVEYAFNQLKDIFAQAMKDYGKNVNL
notes: Trehalose-6-phosphate synthase TPS (Saci_1249), Sulfolobus acidocaldarius; gene of 1,335 bp encoding 444 amino acids, calculated mass 50.3 kDa; amplified from genomic DNA with primers that run from the start codon to the stop codon, cloned into pET15b; The N-terminal His tag comes from pET15b; also called GT4-like TPS; source: E. coli BL21(DE3)-CodonPlus, purified …
Km [1]: 1800 µM
Km [2]: 3800 µM
kcat [2]: 4.9 s⁻¹
stoichiometry N [3]: 2
